Source: paper PMC5241874

Substrate: O=C(O)CC(C(=O)O)C(O)C(=O)O
Assay: purified protein
Type: biochemical, Homo sapiens
Settings: no activators, 2 mM Mn2+, 3.2 mM NAD, 33 mM Tris-acetate pH 7.4, 25 °C, Hill 2.0, racemic DL-ICT varied

B1: αγ heterodimer of human NAD-IDH (IDH3) (Homo sapiens; P51553:R136A) (protein)
chain 1: TGGVQTVTLIPGDGIGPEISAAVMKIFDAAKAPIQWEERNVTAIQGPGGKWMIPSEAKESMDKNKMGLKGPLKTPIAAGHPSMNLLLRKTFDLYANVRPCVSIEGYKTPYTDVNIVTIRENTEGEYSGIEHVIVDGVVQSIKLITEGASKRIAEFAFEYARNNHRSNVTAVHKANIMRMSDGLFLQKCREVAESCKDIKFNEMYLDTVCLNMVQDPSQFDVLVMPNLYGDILSDLCAGLIGGLGVTPSGNIGANGVAIFESVHGTAPDIAGKDMANPTALLLSAVMMLRHMGLFDHAARIEAACFATIKDGKSLTKDLGGNAKCSDFTEEICRRVKDLD
chain 2: FSEQTIPPSAKYGGRHTVTMIPGDGIGPELMLHVKSVFRHACVPVDFEEVHVSSNADEEDIRNAIMAIRRNRVALKGNIETNHNLPPSHKSRNNILATSLDLYANVIHCKSLPGVVTRHKDIDILIVRENTEGEYSSLEHESVAGVVESLKIITKAKSLRIAEYAFKLAQESGRKKVTAVHKANIMKLGDGLFLQCCREVAARYPQITFENMIVDNTTMQLVSRPQQFDVMVMPNLYGNIVNNVCAGLVGGPGLVAGANYGHVYAVFETATRNTGKSIANKNIANPTATLLASCMMLDHLKLHSYATSIRKAVLASMDNENMHTPDIGGQGTTSEAIQDVIRHIRVINGRAVEA
notes: alpha and gamma co-expressed in E. coli BL21(DE3) from pQlinkN; gamma C-terminal TEV-His6, His6 cleaved by TEV; 80 kDa heterodimer (dimer of heterodimers at high concentration)
K0.5 (Hill 1.0): 4.51 ± 0.43 mM | kcat/Km (Hill 1.0): 330 ± 10 M⁻¹ s⁻¹

B2: αγ heterodimer of human NAD-IDH (IDH3) (Homo sapiens; P51553:D229A) (protein)
chain 1: TGGVQTVTLIPGDGIGPEISAAVMKIFDAAKAPIQWEERNVTAIQGPGGKWMIPSEAKESMDKNKMGLKGPLKTPIAAGHPSMNLLLRKTFDLYANVRPCVSIEGYKTPYTDVNIVTIRENTEGEYSGIEHVIVDGVVQSIKLITEGASKRIAEFAFEYARNNHRSNVTAVHKANIMRMSDGLFLQKCREVAESCKDIKFNEMYLDTVCLNMVQDPSQFDVLVMPNLYGDILSDLCAGLIGGLGVTPSGNIGANGVAIFESVHGTAPDIAGKDMANPTALLLSAVMMLRHMGLFDHAARIEAACFATIKDGKSLTKDLGGNAKCSDFTEEICRRVKDLD
chain 2: FSEQTIPPSAKYGGRHTVTMIPGDGIGPELMLHVKSVFRHACVPVDFEEVHVSSNADEEDIRNAIMAIRRNRVALKGNIETNHNLPPSHKSRNNILRTSLDLYANVIHCKSLPGVVTRHKDIDILIVRENTEGEYSSLEHESVAGVVESLKIITKAKSLRIAEYAFKLAQESGRKKVTAVHKANIMKLGAGLFLQCCREVAARYPQITFENMIVDNTTMQLVSRPQQFDVMVMPNLYGNIVNNVCAGLVGGPGLVAGANYGHVYAVFETATRNTGKSIANKNIANPTATLLASCMMLDHLKLHSYATSIRKAVLASMDNENMHTPDIGGQGTTSEAIQDVIRHIRVINGRAVEA
notes: as for B1
K0.5 (Hill 1.1): 10.2 ± 0.6 mM | kcat/Km (Hill 1.1): 730 ± 40 M⁻¹ s⁻¹

B3: αγ heterodimer of human NAD-IDH (IDH3) (Homo sapiens; P51553:Y174F) (protein)
chain 1: TGGVQTVTLIPGDGIGPEISAAVMKIFDAAKAPIQWEERNVTAIQGPGGKWMIPSEAKESMDKNKMGLKGPLKTPIAAGHPSMNLLLRKTFDLYANVRPCVSIEGYKTPYTDVNIVTIRENTEGEYSGIEHVIVDGVVQSIKLITEGASKRIAEFAFEYARNNHRSNVTAVHKANIMRMSDGLFLQKCREVAESCKDIKFNEMYLDTVCLNMVQDPSQFDVLVMPNLYGDILSDLCAGLIGGLGVTPSGNIGANGVAIFESVHGTAPDIAGKDMANPTALLLSAVMMLRHMGLFDHAARIEAACFATIKDGKSLTKDLGGNAKCSDFTEEICRRVKDLD
chain 2: FSEQTIPPSAKYGGRHTVTMIPGDGIGPELMLHVKSVFRHACVPVDFEEVHVSSNADEEDIRNAIMAIRRNRVALKGNIETNHNLPPSHKSRNNILRTSLDLYANVIHCKSLPGVVTRHKDIDILIVRENTEGEFSSLEHESVAGVVESLKIITKAKSLRIAEYAFKLAQESGRKKVTAVHKANIMKLGDGLFLQCCREVAARYPQITFENMIVDNTTMQLVSRPQQFDVMVMPNLYGNIVNNVCAGLVGGPGLVAGANYGHVYAVFETATRNTGKSIANKNIANPTATLLASCMMLDHLKLHSYATSIRKAVLASMDNENMHTPDIGGQGTTSEAIQDVIRHIRVINGRAVEA
notes: as for B1
K0.5 (Hill 1.1): 8.80 ± 0.54 mM | kcat/Km (Hill 1.1): 270 ± 10 M⁻¹ s⁻¹

B4: αγ heterodimer of human NAD-IDH (IDH3) (Homo sapiens; P51553:K190A) (protein)
chain 1: TGGVQTVTLIPGDGIGPEISAAVMKIFDAAKAPIQWEERNVTAIQGPGGKWMIPSEAKESMDKNKMGLKGPLKTPIAAGHPSMNLLLRKTFDLYANVRPCVSIEGYKTPYTDVNIVTIRENTEGEYSGIEHVIVDGVVQSIKLITEGASKRIAEFAFEYARNNHRSNVTAVHKANIMRMSDGLFLQKCREVAESCKDIKFNEMYLDTVCLNMVQDPSQFDVLVMPNLYGDILSDLCAGLIGGLGVTPSGNIGANGVAIFESVHGTAPDIAGKDMANPTALLLSAVMMLRHMGLFDHAARIEAACFATIKDGKSLTKDLGGNAKCSDFTEEICRRVKDLD
chain 2: FSEQTIPPSAKYGGRHTVTMIPGDGIGPELMLHVKSVFRHACVPVDFEEVHVSSNADEEDIRNAIMAIRRNRVALKGNIETNHNLPPSHKSRNNILRTSLDLYANVIHCKSLPGVVTRHKDIDILIVRENTEGEYSSLEHESVAGVVESLAIITKAKSLRIAEYAFKLAQESGRKKVTAVHKANIMKLGDGLFLQCCREVAARYPQITFENMIVDNTTMQLVSRPQQFDVMVMPNLYGNIVNNVCAGLVGGPGLVAGANYGHVYAVFETATRNTGKSIANKNIANPTATLLASCMMLDHLKLHSYATSIRKAVLASMDNENMHTPDIGGQGTTSEAIQDVIRHIRVINGRAVEA
notes: as for B1
K0.5 (Hill 1.1): 8.12 ± 0.16 mM | kcat/Km (Hill 1.1): 90 ± 2 M⁻¹ s⁻¹

B5: αγ heterodimer of human NAD-IDH (IDH3) (Homo sapiens; P51553:R167A) (protein)
chain 1: TGGVQTVTLIPGDGIGPEISAAVMKIFDAAKAPIQWEERNVTAIQGPGGKWMIPSEAKESMDKNKMGLKGPLKTPIAAGHPSMNLLLRKTFDLYANVRPCVSIEGYKTPYTDVNIVTIRENTEGEYSGIEHVIVDGVVQSIKLITEGASKRIAEFAFEYARNNHRSNVTAVHKANIMRMSDGLFLQKCREVAESCKDIKFNEMYLDTVCLNMVQDPSQFDVLVMPNLYGDILSDLCAGLIGGLGVTPSGNIGANGVAIFESVHGTAPDIAGKDMANPTALLLSAVMMLRHMGLFDHAARIEAACFATIKDGKSLTKDLGGNAKCSDFTEEICRRVKDLD
chain 2: FSEQTIPPSAKYGGRHTVTMIPGDGIGPELMLHVKSVFRHACVPVDFEEVHVSSNADEEDIRNAIMAIRRNRVALKGNIETNHNLPPSHKSRNNILRTSLDLYANVIHCKSLPGVVTRHKDIDILIVAENTEGEYSSLEHESVAGVVESLKIITKAKSLRIAEYAFKLAQESGRKKVTAVHKANIMKLGDGLFLQCCREVAARYPQITFENMIVDNTTMQLVSRPQQFDVMVMPNLYGNIVNNVCAGLVGGPGLVAGANYGHVYAVFETATRNTGKSIANKNIANPTATLLASCMMLDHLKLHSYATSIRKAVLASMDNENMHTPDIGGQGTTSEAIQDVIRHIRVINGRAVEA
notes: as for B1
K0.5 (Hill 1.1): 8.57 ± 0.42 mM | kcat/Km (Hill 1.1): 260 ± 10 M⁻¹ s⁻¹

B6: αγ heterodimer of human NAD-IDH (IDH3) (Homo sapiens; P50213:Y255F) (protein)
chain 1: TGGVQTVTLIPGDGIGPEISAAVMKIFDAAKAPIQWEERNVTAIQGPGGKWMIPSEAKESMDKNKMGLKGPLKTPIAAGHPSMNLLLRKTFDLYANVRPCVSIEGYKTPYTDVNIVTIRENTEGEYSGIEHVIVDGVVQSIKLITEGASKRIAEFAFEYARNNHRSNVTAVHKANIMRMSDGLFLQKCREVAESCKDIKFNEMYLDTVCLNMVQDPSQFDVLVMPNLFGDILSDLCAGLIGGLGVTPSGNIGANGVAIFESVHGTAPDIAGKDMANPTALLLSAVMMLRHMGLFDHAARIEAACFATIKDGKSLTKDLGGNAKCSDFTEEICRRVKDLD
chain 2: FSEQTIPPSAKYGGRHTVTMIPGDGIGPELMLHVKSVFRHACVPVDFEEVHVSSNADEEDIRNAIMAIRRNRVALKGNIETNHNLPPSHKSRNNILRTSLDLYANVIHCKSLPGVVTRHKDIDILIVRENTEGEYSSLEHESVAGVVESLKIITKAKSLRIAEYAFKLAQESGRKKVTAVHKANIMKLGDGLFLQCCREVAARYPQITFENMIVDNTTMQLVSRPQQFDVMVMPNLYGNIVNNVCAGLVGGPGLVAGANYGHVYAVFETATRNTGKSIANKNIANPTATLLASCMMLDHLKLHSYATSIRKAVLASMDNENMHTPDIGGQGTTSEAIQDVIRHIRVINGRAVEA
notes: as for B1
K0.5 (Hill 1.1): 14.5 ± 0.9 mM | kcat/Km (Hill 1.1): 46 ± 2 M⁻¹ s⁻¹

B7: αγ heterodimer of human NAD-IDH (IDH3) (Homo sapiens; P51553:R311A) (protein)
chain 1: TGGVQTVTLIPGDGIGPEISAAVMKIFDAAKAPIQWEERNVTAIQGPGGKWMIPSEAKESMDKNKMGLKGPLKTPIAAGHPSMNLLLRKTFDLYANVRPCVSIEGYKTPYTDVNIVTIRENTEGEYSGIEHVIVDGVVQSIKLITEGASKRIAEFAFEYARNNHRSNVTAVHKANIMRMSDGLFLQKCREVAESCKDIKFNEMYLDTVCLNMVQDPSQFDVLVMPNLYGDILSDLCAGLIGGLGVTPSGNIGANGVAIFESVHGTAPDIAGKDMANPTALLLSAVMMLRHMGLFDHAARIEAACFATIKDGKSLTKDLGGNAKCSDFTEEICRRVKDLD
chain 2: FSEQTIPPSAKYGGRHTVTMIPGDGIGPELMLHVKSVFRHACVPVDFEEVHVSSNADEEDIRNAIMAIRRNRVALKGNIETNHNLPPSHKSRNNILRTSLDLYANVIHCKSLPGVVTRHKDIDILIVRENTEGEYSSLEHESVAGVVESLKIITKAKSLRIAEYAFKLAQESGRKKVTAVHKANIMKLGDGLFLQCCREVAARYPQITFENMIVDNTTMQLVSRPQQFDVMVMPNLYGNIVNNVCAGLVGGPGLVAGANYGHVYAVFETATANTGKSIANKNIANPTATLLASCMMLDHLKLHSYATSIRKAVLASMDNENMHTPDIGGQGTTSEAIQDVIRHIRVINGRAVEA
notes: as for B1
K0.5 (Hill 1.0): 19.3 ± 1.0 mM | kcat/Km (Hill 1.0): 210 ± 10 M⁻¹ s⁻¹

B8: αγ heterodimer of human NAD-IDH (IDH3) (Homo sapiens; P51553:Y276F) (protein)
chain 1: TGGVQTVTLIPGDGIGPEISAAVMKIFDAAKAPIQWEERNVTAIQGPGGKWMIPSEAKESMDKNKMGLKGPLKTPIAAGHPSMNLLLRKTFDLYANVRPCVSIEGYKTPYTDVNIVTIRENTEGEYSGIEHVIVDGVVQSIKLITEGASKRIAEFAFEYARNNHRSNVTAVHKANIMRMSDGLFLQKCREVAESCKDIKFNEMYLDTVCLNMVQDPSQFDVLVMPNLYGDILSDLCAGLIGGLGVTPSGNIGANGVAIFESVHGTAPDIAGKDMANPTALLLSAVMMLRHMGLFDHAARIEAACFATIKDGKSLTKDLGGNAKCSDFTEEICRRVKDLD
chain 2: FSEQTIPPSAKYGGRHTVTMIPGDGIGPELMLHVKSVFRHACVPVDFEEVHVSSNADEEDIRNAIMAIRRNRVALKGNIETNHNLPPSHKSRNNILRTSLDLYANVIHCKSLPGVVTRHKDIDILIVRENTEGEYSSLEHESVAGVVESLKIITKAKSLRIAEYAFKLAQESGRKKVTAVHKANIMKLGDGLFLQCCREVAARYPQITFENMIVDNTTMQLVSRPQQFDVMVMPNLFGNIVNNVCAGLVGGPGLVAGANYGHVYAVFETATRNTGKSIANKNIANPTATLLASCMMLDHLKLHSYATSIRKAVLASMDNENMHTPDIGGQGTTSEAIQDVIRHIRVINGRAVEA
notes: as for B1
K0.5 (Hill 1.0): 14.8 ± 0.5 mM | kcat/Km (Hill 1.0): 250 ± 10 M⁻¹ s⁻¹
